The values that follow come from paper PMC3127752.

For data set [1], the system named is T1, SO2426 (Shewanella oneidensis MR-1), ORF:71750797.
T1 sequence: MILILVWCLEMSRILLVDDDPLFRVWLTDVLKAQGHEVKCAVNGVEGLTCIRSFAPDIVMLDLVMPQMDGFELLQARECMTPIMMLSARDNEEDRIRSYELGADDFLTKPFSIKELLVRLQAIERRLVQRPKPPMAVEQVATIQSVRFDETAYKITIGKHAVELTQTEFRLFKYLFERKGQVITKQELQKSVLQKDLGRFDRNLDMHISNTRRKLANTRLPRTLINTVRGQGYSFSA
The data set is described as follows: EMSA. The note with it: DIG-11-dUTP incorporated (dTTP:DIG-dUTP 1:6 mix), 0.5X EMSA buffer [5 mM Tris-Cl pH 8.0, 75 mM KCl, 0.05 mM DTT, 0.05 mM EDTA, 6% glycerol], 5 mM MgCl2, 20 mM acetyl phosphate, 0.2 ug/ul poly(dI:dC). For orientation: In EMSA bound probe runs differently from free probe, usually more slowly.

Data set [2] concerns the target T2, SO2426sh (Shewanella oneidensis MR-1) (UniProt Q8EEF6).
T2 sequence: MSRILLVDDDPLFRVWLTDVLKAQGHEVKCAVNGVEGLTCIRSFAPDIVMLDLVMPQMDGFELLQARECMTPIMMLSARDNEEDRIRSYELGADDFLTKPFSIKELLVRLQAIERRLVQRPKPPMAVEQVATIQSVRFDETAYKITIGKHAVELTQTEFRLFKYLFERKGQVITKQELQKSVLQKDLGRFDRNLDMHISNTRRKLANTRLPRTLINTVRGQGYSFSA
The experiment in a line: EMSA. As to conditions: DIG-11-dUTP incorporated (dTTP:DIG-dUTP 1:6 mix), 0.5X EMSA buffer [5 mM Tris-Cl pH 8.0, 75 mM KCl, 0.05 mM DTT, 0.05 mM EDTA, 6% glycerol], 5 mM MgCl2, 20 mM acetyl phosphate, 0.2 ug/ul poly(dI:dC).

As to “TTCGTCGTTGTAGTGAACCTGTAACAGCAAATCAGACGGAAAAATTTCTATTTAGCAACACAATGGAATGACTTACACGGCA (double strand) [so3030 upstream 83-bp probe]”, the binding entry in data set [1] and in data set [2] was “binds” in each case.
